Measurements taken from patent US20190167760A1 (SWEDISH ORPHAN BIOVITRUM AB PUBL, published 2019).

Tests used:
[1] = target: T1, Human complement protein C5 (human, UniProt P01031 19-673; P01031 678-1676)
[2] = target: T1, Human complement protein C5; test: cell-based or functional assay

T1 sequence (P01031 19-673, chain 1 of 2): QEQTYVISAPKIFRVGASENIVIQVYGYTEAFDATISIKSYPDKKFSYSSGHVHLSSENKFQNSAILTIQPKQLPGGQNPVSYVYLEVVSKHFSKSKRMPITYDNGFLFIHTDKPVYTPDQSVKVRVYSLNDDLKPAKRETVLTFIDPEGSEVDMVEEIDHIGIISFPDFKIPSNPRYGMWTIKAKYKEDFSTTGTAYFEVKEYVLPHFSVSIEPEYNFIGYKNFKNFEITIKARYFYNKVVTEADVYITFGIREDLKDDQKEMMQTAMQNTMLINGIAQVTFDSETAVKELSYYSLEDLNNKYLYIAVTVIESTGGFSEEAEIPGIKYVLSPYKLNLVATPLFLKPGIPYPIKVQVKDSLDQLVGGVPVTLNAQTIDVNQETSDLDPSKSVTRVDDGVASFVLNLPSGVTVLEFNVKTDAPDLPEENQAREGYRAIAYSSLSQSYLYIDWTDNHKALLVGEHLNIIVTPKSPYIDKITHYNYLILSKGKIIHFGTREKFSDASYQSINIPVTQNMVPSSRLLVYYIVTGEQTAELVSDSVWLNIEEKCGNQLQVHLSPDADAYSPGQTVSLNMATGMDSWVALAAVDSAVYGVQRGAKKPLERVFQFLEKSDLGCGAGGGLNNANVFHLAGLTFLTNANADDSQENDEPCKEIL
T1 sequence (P01031 678-1676, chain 2 of 2): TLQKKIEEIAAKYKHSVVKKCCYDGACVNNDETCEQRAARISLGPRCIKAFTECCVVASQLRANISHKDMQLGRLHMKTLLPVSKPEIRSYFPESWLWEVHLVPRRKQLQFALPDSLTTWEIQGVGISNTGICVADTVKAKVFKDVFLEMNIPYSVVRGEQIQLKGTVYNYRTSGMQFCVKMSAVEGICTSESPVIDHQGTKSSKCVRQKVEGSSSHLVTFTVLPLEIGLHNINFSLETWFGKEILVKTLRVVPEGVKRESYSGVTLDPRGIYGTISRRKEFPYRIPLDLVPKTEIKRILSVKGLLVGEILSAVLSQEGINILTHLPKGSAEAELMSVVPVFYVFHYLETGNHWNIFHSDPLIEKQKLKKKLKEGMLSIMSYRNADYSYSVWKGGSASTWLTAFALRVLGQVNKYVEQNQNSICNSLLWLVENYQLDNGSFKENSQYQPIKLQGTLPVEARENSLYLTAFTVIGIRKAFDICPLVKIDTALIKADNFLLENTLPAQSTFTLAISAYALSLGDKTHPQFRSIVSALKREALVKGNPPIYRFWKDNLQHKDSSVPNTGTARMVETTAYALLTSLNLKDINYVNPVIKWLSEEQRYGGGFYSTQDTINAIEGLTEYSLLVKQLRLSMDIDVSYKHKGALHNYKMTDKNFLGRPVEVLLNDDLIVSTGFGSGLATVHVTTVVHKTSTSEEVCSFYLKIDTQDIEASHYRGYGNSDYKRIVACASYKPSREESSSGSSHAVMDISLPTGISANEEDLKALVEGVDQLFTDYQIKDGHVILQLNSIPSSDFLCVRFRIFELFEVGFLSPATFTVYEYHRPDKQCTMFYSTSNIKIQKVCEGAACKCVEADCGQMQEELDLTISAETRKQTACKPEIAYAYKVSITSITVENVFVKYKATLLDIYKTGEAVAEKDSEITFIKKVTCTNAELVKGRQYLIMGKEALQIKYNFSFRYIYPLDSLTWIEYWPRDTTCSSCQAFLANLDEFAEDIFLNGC

B1: Ornithodoros moubata Complement Inhibitor with a His6 tag in the C-terminus (other)
chain: MDSESDCTGSEPVDAFQAFSEGKEAYVLVRSTDPKARDCLKGEPAGEKQDNTLPVMMTFKNGTDWASTDWTFTLDGAKVTATLGNLTQNREVVYDSQSHHCHVDKVEKEVPDYEMWMLDAGGLEVEVECCRQKLEELASGRNQMYPHLKDCGGGGSENLYFQGSHHHHHH
In the case of B1, the IC50 [1] is reported as 1.5 nM and the “IC50 of inhibition of hemolysis of antibody sensitized sheep erythrocytes” value [2] is reported as 0.3 to 0.5 nM.
